Assay [1] deals with T1, full-length human Apaf-1 (residues 1–1248) (human, UniProt O14727 1-1248).
T1 construct: Seven copies stand in the apoptosome that forms with CytC and dATP; source: Hi-5 insect cells (baculovirus), purified (Ni-NTA, gel filtration Superose 6)
T1 sequence (looked up): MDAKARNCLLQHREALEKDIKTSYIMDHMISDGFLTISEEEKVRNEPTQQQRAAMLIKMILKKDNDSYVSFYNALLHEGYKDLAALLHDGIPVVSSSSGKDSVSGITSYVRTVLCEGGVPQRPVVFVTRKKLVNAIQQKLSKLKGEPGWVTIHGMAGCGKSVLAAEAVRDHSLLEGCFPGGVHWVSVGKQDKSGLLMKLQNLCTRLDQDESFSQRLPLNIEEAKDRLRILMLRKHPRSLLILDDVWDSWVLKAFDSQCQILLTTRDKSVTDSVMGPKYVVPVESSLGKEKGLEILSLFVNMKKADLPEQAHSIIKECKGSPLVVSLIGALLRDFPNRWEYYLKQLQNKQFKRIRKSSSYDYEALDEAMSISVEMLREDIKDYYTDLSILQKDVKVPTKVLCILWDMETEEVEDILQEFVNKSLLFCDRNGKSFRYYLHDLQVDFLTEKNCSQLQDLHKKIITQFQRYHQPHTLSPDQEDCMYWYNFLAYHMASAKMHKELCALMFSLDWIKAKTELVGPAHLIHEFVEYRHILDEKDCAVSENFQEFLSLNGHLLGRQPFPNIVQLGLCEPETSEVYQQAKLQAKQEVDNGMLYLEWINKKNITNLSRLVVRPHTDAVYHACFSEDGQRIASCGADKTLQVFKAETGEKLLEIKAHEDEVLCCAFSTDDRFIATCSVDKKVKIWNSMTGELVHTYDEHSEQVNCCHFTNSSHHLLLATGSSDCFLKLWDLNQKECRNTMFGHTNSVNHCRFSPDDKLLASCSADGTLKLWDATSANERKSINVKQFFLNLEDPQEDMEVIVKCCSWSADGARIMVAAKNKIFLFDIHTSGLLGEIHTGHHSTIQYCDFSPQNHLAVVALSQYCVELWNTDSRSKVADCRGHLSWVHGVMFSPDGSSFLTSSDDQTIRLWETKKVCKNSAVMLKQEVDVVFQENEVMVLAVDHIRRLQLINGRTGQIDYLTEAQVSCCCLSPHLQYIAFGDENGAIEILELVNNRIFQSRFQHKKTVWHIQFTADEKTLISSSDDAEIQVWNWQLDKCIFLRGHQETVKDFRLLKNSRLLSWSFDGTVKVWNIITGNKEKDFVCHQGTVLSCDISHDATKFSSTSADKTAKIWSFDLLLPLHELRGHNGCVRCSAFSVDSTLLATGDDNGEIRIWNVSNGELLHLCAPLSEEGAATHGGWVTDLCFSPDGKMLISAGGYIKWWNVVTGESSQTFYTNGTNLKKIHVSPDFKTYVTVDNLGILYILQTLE
The assay is described as follows: ITC; Apaf-1 4 μM, CytC 60 μM; 100 mM KCl, 20 mM HEPES pH 7.5; 22°C; VP-ITC. The note with it: both partners purified.

Assay [2] addresses T1, full-length human Apaf-1 (residues …). As to the kind of experiment: SEC; Apaf-1 incubated with CytC at a molar ratio of 1:2, Superdex-200 increase 5/150; 100 mM KCl, 20 mM HEPES pH 7.5, 5 mM DTT; fractions on SDS-PAGE; no dATP named. The following applies: both partners purified.

B1: untagged, full-length horse CytC (wild type, recombinant) (natural protein)
chain: not shown
notes: cytochrome c, horse (Equus caballus), untagged, full length; Purification as in Yu et al. 2001; also called cytochrome c; wild-type CytC; source: E. coli BL21 (DE3), coexpressed with the yeast heme lyase CYC3, purified
B1: in assay [1], the Ka was ~2.04e+06 M⁻¹ and the equilibrium dissociation constant (Kd) (in general, a measure of binding affinity in units of concentration) was ~490 nM.

B2: horse CytC K87W (natural protein)
chain: not shown
notes: cytochrome c, horse, untagged, full length, mutant K87W; source: E. coli BL21 (DE3), coexpressed with the yeast heme lyase CYC3, purified
Regarding B2, the binding result in assay [2] is “binds”.

The values are drawn from publication PMC4691890, “Atomic structure of the apoptosome: mechanism of cytochrome c- and dATP-mediated activation of Apaf-1” (Genes & Development, 2015).
